Data set [1] addresses FVII_XHC: FVII with FX activation peptide inserted in the end of FVII heavy chain. Description: cell-based or functional assay.
Data set [2] has as its system T1, Factor VII (wild-type, single-chain zymogen).
T1 sequence: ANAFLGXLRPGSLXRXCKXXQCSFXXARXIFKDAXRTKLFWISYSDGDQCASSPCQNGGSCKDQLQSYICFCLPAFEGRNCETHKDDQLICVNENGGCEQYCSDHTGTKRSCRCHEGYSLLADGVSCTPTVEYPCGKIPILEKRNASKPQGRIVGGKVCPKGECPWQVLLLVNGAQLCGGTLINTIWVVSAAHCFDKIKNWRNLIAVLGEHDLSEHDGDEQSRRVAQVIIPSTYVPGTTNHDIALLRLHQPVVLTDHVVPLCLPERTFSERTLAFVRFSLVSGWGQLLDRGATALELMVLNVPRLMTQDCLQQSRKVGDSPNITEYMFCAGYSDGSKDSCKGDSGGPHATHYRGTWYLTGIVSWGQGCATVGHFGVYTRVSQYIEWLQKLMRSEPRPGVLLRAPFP

In data set [1], “Factor IXa (from UniProt P00740 47-461) (enzyme)” registered a time to complete activation, reducing SDS-PAGE, 80 nM FIXa of 4 h. Consider Factor Xa, for which the “activation of FVII (cleavage to two chains) on reducing SDS-PAGE; 100 nM FXa for 2 h” value in data set [2] was “completely activated under all described conditions”. Regarding Factor IXa, the “activation of FVII (cleavage to two chains) on reducing SDS-PAGE; 250 nM FIXa for 20 h” value in data set [2] is listed as “completely activated under all described conditions”. For the substance Factor XIa, in data set [2], the “activation of FVII (cleavage to two chains) on reducing SDS-PAGE; 75 nM FXIa for 2.5 h” value was “completely activated under all described conditions”.

The record behind these values is patent publication US20120321607A1.
